Data set [1] relates to HeLa Kyoto. Nature of the data set: thermal stability score vs G1/S (z-score of summed log2 fold changes over temperatures); higher = more thermally stable than in G1/S.
The subject of data set [2] is HeLa Kyoto. Nature of the data set: solubility change mitosis vs G1/S (difference of NP-40 vs SDS log2 ratios) (log2 ratio difference); higher = more soluble in mitosis.
In data set [3] the test system is HeLa Kyoto. Nature of the data set: solubility in G1/S (NP-40 vs SDS abundance) (log2 ratio); higher = more soluble. The following applies: cell cycle stage: G1/S.
In data set [4] the test system is HeLa Kyoto. Nature of the data set: melting temperature (median over replicates), in situ; higher = more thermally stable.
The mark [5] stands for this setting: cell cycle stage: early G1 (4.5 h after nocodazole release).
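Throughout, for melting temperature (median over replicates), in situ: HeLa Kyoto cells synchronized by double thymidine or nocodazole block, proteins quantified by TMT10plex mass spectrometry, three independent biological replicates.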
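Throughout, for solubility change mitosis vs G1/S (difference of NP-40 vs SDS log2 ratios): synchronized HeLa Kyoto cells (double thymidine block for G1/S, nocodazole release for mitosis), protein amounts in NP-40 versus SDS lysates quantified by mass spectrometry, three biological replicates.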
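Throughout, for solubility in G1/S (NP-40 vs SDS abundance): HeLa Kyoto cells arrested at G1/S by double thymidine block, proteins quantified by TMT10plex mass spectrometry in mild NP-40 versus SDS extracts, three biological replicates.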
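Throughout, for thermal stability score vs G1/S (z-score of summed log2 fold changes over temperatures): synchronized HeLa Kyoto cells, proteins quantified by TMT10plex mass spectrometry, three biological replicates, mitosis taken 0.5 h after nocodazole release, G1/S directly after double thymidine block.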

In the case of “MASCASIDIEDATQHLRDILKLDRPAGGPSAESPRPSSAYNGDLNGLLVPDPLCSGDSTSANKTGLRTMPPINLQEKQVICLSGDDSSTCIGILAKEVEIVASSDSSISSKARGSNKVKIQPVAKYDWEQKYYYGNLIAVSNSFLAYAIRAANNGSAMVRVISVSTSERTLLKGFTGSVADLAFAHLNSPQLACLDEAGNLFVWRLALVNGKIQEEILVHIRQPEGTPLNHFRRIIWCPFIPEESEDCCEESSPTVALLHEDRAEVWDLDMLRSSHSTWPVDVSQIKQGFIVVKGHSTCLSEGALSPDGTVLATASHDGYVKFWQIYIEGQDEPRCLHEWKPHDGRPLSCLLFCDNHKKQDPDVPFWRFLITGADQNRELKMWCTVSWTCLQTIRFSPDIFSSVSVPPSLKVCLDLSAEYLILSDVQRKVLYVMELLQNQEEGHACFSSISEFLLTHPVLSFGIQVVSRCRLRHTEVLPAEEENDSLGADGTHGAGAMESAAGVLIKLFCVHTKALQDVQIRFQPQLNPDVVAPLPTHTAHEDFTFGESRPELGSEGLGSAAHGSQPDLRRIVELPAPADFLSLSSETKPKLMTPDAFMTPSASLQQITASPSSSSSGSSSSSSSSSSSLTAVSAMSSTSAVDPSLTRPPEELTLSPKLQLDGSLTMSSSGSLQASPRGLLPGLLPAPADKLTPKGPGQVPTATSALSLELQEVEPLGLPQASPSRTRSPDVISSASTALSQDIPEIASEALSRGFGSSAPEGLEPDSMASAASALHLLSPRPRPGPELGPQLGLDGGPGDGDRHNTPSLLEAALTQEASTPDSQVWPTAPDITRETCSTLAESPRNGLQEKHKSLAFHRPPYHLLQQRDSQDASAEQSDHDDEVASLASASGGFGTKVPAPRLPAKDWKTKGSPRTSPKLKRKSKKDDGDAAMGSRLTEHQVAEPPEDWPALIWQQQRELAELRHSQEELLQRLCTQLEGLQSTVTGHVERALETRHEQEQRRLERALAEGQQRGGQLQEQLTQQLSQALSSAVAGRLERSIRDEIKKTVPPCVSRSLEPMAGQLSNSVATKLTAVEGSMKENISKLLKSKNLTDAIARAAADTLQGPMQAAYREAFQSVVLPAFEKSCQAMFQQINDSFRLGTQEYLQQLESHMKSRKAREQEAREPVLAQLRGLVSTLQSATEQMAATVAGSVRAEVQHQLHVAVGSLQESILAQVQRIVKGEVSVALKEQQAAVTSSIMQAMRSAAGTPVPSAHLDCQAQQAHILQLLQQGHLNQAFQQALTAADLNLVLYVCETVDPAQVFGQPPCPLSQPVLLSLIQQLASDLGTRTDLKLSYLEEAVMHLDHSDPITRDHMGSVMAQVRQKLFQFLQAEPHNSLGKAARRLSLMLHGLVTPSLP [EDC4]”, the thermal stability score in the data set with HeLa Kyoto [1] (setting [5]) was 0.116; with HeLa Kyoto [1] (cell cycle stage: mitosis) it was 2.4. Further, in the data set on HeLa Kyoto [2], the “solubility change mitosis (log2)” value was -0.158. Besides, the “solubility in G1/S (log2)” value in the data set with HeLa Kyoto [3] is 0.013. The figures for the melting temperature in the data set with HeLa Kyoto [4] (cell cycle stage: G1/S) and in the data set with HeLa Kyoto [4] (cell cycle stage: mitosis) were 49.6 °C and 50.1 °C, respectively.
Consider “MATRSCREKAQKLNEQHQLILSKLLREEDNKYCADCEAKGPRWASWNIGVFICIRCAGIHRNLGVHISRVKSVNLDQWTAEQIQCMQDMGNTKARLLYEANLPENFRRPQTDQAVEFFIRDKYEKKKYYDKNAIAITNISSSDAPLQPLVSSPSLQAAVDKNKLEKEKEKKKEEKKREKEPEKPAKPLTAEKLQKKDQQLEPKKSTSPKKAAEPTVDLLGLDGPAVAPVTNGNTTVPPLNDDLDIFGPMISNPLPATVMPPAQGTPSAPAAATLSTVTSGDLDLFTEQTTKSEEVAKKQLSKDSILSLYGTGTIQQQSTPGVFMGPTNIPFTSQAPAAFQGFPSMGVPVPAAPGLIGNVMGQSPSMMVGMPMPNGFMGNAQTGVMPLPQNVVGPQGGMVGQMGAPQSKFGLPQAQQPQWSLSQMNQQMAGMSISSATPTAGFGQPSSTTAGWSGSSSGQTLSTQLWK [SMAP1]”, for which the values for the thermal stability score with HeLa Kyoto [1] (setting [5]) and with HeLa Kyoto [1] (cell cycle stage: mitosis) were 0.468 and -0.266, respectively. In addition, the “solubility change mitosis (log2)” value in the data set with HeLa Kyoto [2] is -0.142. In the data set with HeLa Kyoto [3], the “solubility in G1/S (log2)” value was -0.0223. The melting temperature turned out to be 51.2 °C in the data set on HeLa Kyoto [4] (cell cycle stage: G1/S) and 51.3 °C in the data set with HeLa Kyoto [4] (cell cycle stage: mitosis).
Consider “MMEDDGQPRTLYVGNLSRDVTEVLILQLFSQIGPCKSCKMITEHTSNDPYCFVEFYEHRDAAAALAAMNGRKILGKEVKVNWATTPSSQKKDTSNHFHVFVGDLSPEITTEDIKSAFAPFGKISDARVVKDMATGKSKGYGFVSFYNKLDAENAIVHMGGQWLGGRQIRTNWATRKPPAPKSTQENNTKQLRFEDVVNQSSPKNCTVYCGGIASGLTDQLMRQTFSPFGQIMEIRVFPEKGYSFVRFSTHESAAHAIVSVNGTTIEGHVVKCYWGKESPDMTKNFQQVDYSQWGQWSQVYGNPQQYGQYMANGWQVPPYGVYGQPWNQQGFGVDQSPSAAWMGGFGAQPPQGQAPPPVIPPPNQAGYGMASYQTQ [TIAL1]”, for which the figures for the thermal stability score in the data set on HeLa Kyoto [1] (setting [5]) and in the data set on HeLa Kyoto [1] (cell cycle stage: mitosis) were -1.16 and -2.29, respectively. Moreover, the “solubility change mitosis (log2)” value in the data set with HeLa Kyoto [2] is -0.0732. In addition, the “solubility in G1/S (log2)” value with HeLa Kyoto [3] was determined as 0.13. Besides, the melting temperature with HeLa Kyoto [4] (cell cycle stage: G1/S) was determined as 52.3 °C; in the data set on HeLa Kyoto [4] (cell cycle stage: mitosis), 52 °C.
Turning to “MSLLQSALDFLAGPGSLGGASGRDQSDFVGQTVELGELRLRVRRVLAEGGFAFVYEAQDVGSGREYALKRLLSNEEEKNRAIIQEVCFMKKLSGHPNIVQFCSAASIGKEESDTGQAEFLLLTELCKGQLVEFLKKMESRGPLSCDTVLKIFYQTCRAVQHMHRQKPPIIHRDLKVENLLLSNQGTIKLCDFGSATTISHYPDYSWSAQRRALVEEEITRNTTPMYRTPEIIDLYSNFPIGEKQDIWALGCILYLLCFRQHPFEDGAKLRIVNGKYSIPPHDTQYTVFHSLIRAMLQVNPEERLSIAEVVHQLQEIAAARNVNPKSPITELLEQNGGYGSATLSRGPPPPVGPAGSGYSGGLALAEYDQPYGGFLDILRGGTERLFTNLKDTSSKVIQSVANYAKGDLDISYITSRIAVMSFPAEGVESALKNNIEDVRLFLDSKHPGHYAVYNLSPRTYRPSRFHNRVSECGWAARRAPHLHTLYNICRNMHAWLRQDHKNVCVVHCMDGRAASAVAVCSFLCFCRLFSTAEAAVYMFSMKRCPPGIWPSHKRYIEYMCDMVAEEPITPHSKPILVRAVVMTPVPLFSKQRSGCRPFCEVYVGDERVASTSQEYDKMRDFKIEDGKAVIPLGVTVQGDVLIVIYHARSTLGGRLQAKMASMKMFQIQFHTGFVPRNATTVKFAKYDLDACDIQEKYPDLFQVNLEVEVEPRDRPSREAPPWENSSMRGLNPKILFSSREEQQDILSKFGKPELPRQPGSTAQYDAGAGSPEAEPTDSDSPPSSSADASRFLHTLDWQEEKEAETGAENASSKESESALMEDRDESEVSDEGGSPISSEGQEPRADPEPPGLAAGLVQQDLVFEVETPAVLPEPVPQEDGVDLLGLHSEVGAGPAVPPQACKAPSSNTDLLSCLLGPPEAASQGPPEDLLSEDPLLLASPAPPLSVQSTPRGGPPAAADPFGPLLPSSGNNSQPCSNPDLFGEFLNSDSVTVPPSFPSAHSAPPPSCSADFLHLGDLPGEPSKMTASSSNPDLLGGWAAWTETAASAVAPTPATEGPLFSPGGQPAPCGSQASWTKSQNPDPFADLGDLSSGLQGSPAGFPPGGFIPKTATTPKGSSSWQTSRPPAQGASWPPQAKPPPKACTQPRPNYASNFSVIGAREERGVRAPSFAQKPKVSENDFEDLLSNQGFSSRSDKKGPKTIAEMRKQDLAKDTDPLKLKLLDWIEGKERNIRALLSTLHTVLWDGESRWTPVGMADLVAPEQVKKHYRRAVLAVHPDKAAGQPYEQHAKMIFMELNDAWSEFENQGSRPLF”, the thermal stability score with HeLa Kyoto [1] (setting [5]) worked out at 0.76; with HeLa Kyoto [1] (cell cycle stage: mitosis), 1.62. The “solubility change mitosis (log2)” value in the data set with HeLa Kyoto [2] is -0.151. Further, the “solubility in G1/S (log2)” value in the data set with HeLa Kyoto [3] is -0.0682. Further, the melting temperature in the data set with HeLa Kyoto [4] (cell cycle stage: G1/S) amounted to 48.6 °C; in the data set on HeLa Kyoto [4] (cell cycle stage: mitosis) it was 48.9 °C.

The values above are taken from the supplement of paper PMC5998384.
